# The supplement of paper PMC10065799, “High-throughput profiling of sequence recognition by tyrosine kinases and SH2 domains using bacterial peptide display” (eLife, 2023)
# Target: FGFR3 (UniProt P22607)
# Assay: phosphorylation enrichment, bacterial display (enrichment ratio); higher = better substrate or ligand; peptides without Tyr show the background
# 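Note: 11-residue human phosphosite peptides and single-mutation variants displayed on the E. coli surface, counted by deep sequencing, each peptide's frequency after selection divided by its frequency in the unselected input library; frequency after pTyr selection over input frequency; kinase dosed for 20-30% of maximal phosphorylation in three min.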
# Sequence of FGFR3 (P22607 whole entry, looked up): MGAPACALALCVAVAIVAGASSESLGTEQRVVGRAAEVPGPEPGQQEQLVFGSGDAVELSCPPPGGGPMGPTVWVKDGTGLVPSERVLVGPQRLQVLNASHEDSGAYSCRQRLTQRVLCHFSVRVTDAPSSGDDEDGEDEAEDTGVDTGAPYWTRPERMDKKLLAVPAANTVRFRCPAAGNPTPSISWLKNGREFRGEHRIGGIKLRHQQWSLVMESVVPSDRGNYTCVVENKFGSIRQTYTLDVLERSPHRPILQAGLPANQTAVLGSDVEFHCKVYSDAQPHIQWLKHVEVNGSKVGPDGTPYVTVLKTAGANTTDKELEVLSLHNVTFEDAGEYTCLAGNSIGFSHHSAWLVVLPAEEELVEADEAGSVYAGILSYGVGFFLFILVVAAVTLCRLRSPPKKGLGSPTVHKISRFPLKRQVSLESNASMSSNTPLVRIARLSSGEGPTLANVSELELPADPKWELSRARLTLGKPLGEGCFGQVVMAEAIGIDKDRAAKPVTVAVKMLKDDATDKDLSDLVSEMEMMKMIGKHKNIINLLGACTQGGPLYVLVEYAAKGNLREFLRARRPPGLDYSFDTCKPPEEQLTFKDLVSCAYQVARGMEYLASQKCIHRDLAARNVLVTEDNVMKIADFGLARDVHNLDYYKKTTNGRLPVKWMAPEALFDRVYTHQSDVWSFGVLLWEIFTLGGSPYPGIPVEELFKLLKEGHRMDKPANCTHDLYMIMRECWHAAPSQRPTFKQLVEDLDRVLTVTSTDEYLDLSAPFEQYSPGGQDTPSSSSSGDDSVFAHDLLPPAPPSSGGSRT
row,Sequence,phosphorylation enrichment
1,LKGQVYILGGE [ASS1_Y359_R363G],1.28
2,IKIMGYFIRTI [IDS_Y490_S491F],0.785
3,EMFNPYFGLFE [NEDD4L_Y679_YF],1.68
4,ATPSRYMTFLH [DYNC2H1_Y2872],0.574
5,YGTAQYCCRMG [LRRK2_Y2023_I2020T],0.603
6,QKTGDYYDLYG [PTPN11_Y62_N58K],16.2
7,KRNSLYSFSDH [CCDC82_Y331_Q327R],0.471
8,PSQRRYVYYYS [PTEN_Y174],0.785
9,RNLLIYTEFGK [HGD_Y166_G161R],0.945
10,SVGGCYEQLFV [MC4R_Y41_D37V],0.972
11,RWHEGYRQTPR [CD44_Y412_K417R],0.663
12,HNLDYYKKTTN [FGFR3_Y648],0.648
13,TTKGAYSLSIR [YES1_Y194],0.395
14,KRRGPYEMSPS [PLPP7_Y172_T174M],0.377
15,KGEDFYCVTCP [FHL1_Y149_H154P],1.04
16,TRSFKCLLLSM [NF1_Y491_Y491C_YF],0.609
17,HYPDVYAWEQL [ALX3_Y181_R183W],1.16

row,Sequence,phosphorylation enrichment
1,EILLSYLRTGY [TGM1_Y365],0.749
2,QRDSSYFWEIE [RAF1_Y340_YF],1.25
3,WSQAMYPDLGP [STARD8_Y330_R327Q],0.583
4,AKKKMYSHKTK [AGXT_Y231_R233H],2.37
5,GRKTLYSFFSP [UNG_Y8_Q4R],0.641
6,GSERRYSREGG [PTPRN2_Y139],0.412
7,KACKHYLTTRT [ZBTB5_Y118],0.64
8,GQLIFYAPPEW [CNTN6_Y315],0.731
9,IDFARYWHGDD [MMP11_Y162],0.567
10,VSFDEYRFRSF [CFTR_Y515_V520F_YF],0.739
11,QLATEYVFSDF [PANX1_Y10],1.21
12,YRRITYHNWRH [PDE6B_Y556],0.425
13,VTRANYFIRDE [GNAS_Y339_K338N],0.621
14,FIGRIYLFLTK [GARS1_Y414_YF],0.813
15,DKTGEYPVPLT [ACADM_Y73_I78T],0.578
16,KNKKDYYDMYE [SLC26A3_Y526],4.04

# Target: EPHB1 (UniProt P54762)
# Sequence (P54762 whole entry, looked up): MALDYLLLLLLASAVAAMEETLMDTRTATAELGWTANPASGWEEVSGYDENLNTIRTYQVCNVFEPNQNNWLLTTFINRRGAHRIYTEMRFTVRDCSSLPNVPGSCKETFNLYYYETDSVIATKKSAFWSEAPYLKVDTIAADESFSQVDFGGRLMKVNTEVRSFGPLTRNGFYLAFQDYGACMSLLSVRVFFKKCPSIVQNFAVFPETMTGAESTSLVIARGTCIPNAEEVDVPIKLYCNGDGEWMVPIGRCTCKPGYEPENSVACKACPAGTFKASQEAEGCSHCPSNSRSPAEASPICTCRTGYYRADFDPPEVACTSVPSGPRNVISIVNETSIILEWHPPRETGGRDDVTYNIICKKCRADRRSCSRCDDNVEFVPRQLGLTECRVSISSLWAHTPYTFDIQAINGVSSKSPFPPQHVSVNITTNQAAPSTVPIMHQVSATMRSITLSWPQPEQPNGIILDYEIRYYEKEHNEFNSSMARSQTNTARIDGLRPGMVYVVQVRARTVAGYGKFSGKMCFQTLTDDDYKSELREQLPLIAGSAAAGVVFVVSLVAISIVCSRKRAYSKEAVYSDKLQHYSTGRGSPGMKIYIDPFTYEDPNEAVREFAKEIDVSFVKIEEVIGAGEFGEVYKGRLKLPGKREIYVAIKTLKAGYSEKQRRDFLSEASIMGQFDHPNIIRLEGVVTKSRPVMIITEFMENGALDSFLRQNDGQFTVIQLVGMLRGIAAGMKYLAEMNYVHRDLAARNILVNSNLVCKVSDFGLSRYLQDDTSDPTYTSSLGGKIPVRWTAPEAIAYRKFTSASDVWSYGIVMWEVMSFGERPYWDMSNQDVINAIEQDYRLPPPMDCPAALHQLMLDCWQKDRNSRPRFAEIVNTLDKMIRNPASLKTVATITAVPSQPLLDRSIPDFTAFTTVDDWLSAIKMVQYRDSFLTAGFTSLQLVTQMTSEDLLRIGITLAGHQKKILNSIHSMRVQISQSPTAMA
# Assay: as above
row,Sequence,phosphorylation enrichment
1,LKGQVYILGGE [ASS1_Y359_R363G],1.13
2,IKIMGYFIRTI [IDS_Y490_S491F],0.432
3,EMFNPYFGLFE [NEDD4L_Y679_YF],2.32
4,ATPSRYMTFLH [DYNC2H1_Y2872],0.505
5,YGTAQYCCRMG [LRRK2_Y2023_I2020T],0.714
6,QKTGDYYDLYG [PTPN11_Y62_N58K],11
7,KRNSLYSFSDH [CCDC82_Y331_Q327R],0.458
8,PSQRRYVYYYS [PTEN_Y174],0.57
9,RNLLIYTEFGK [HGD_Y166_G161R],2.86
10,SVGGCYEQLFV [MC4R_Y41_D37V],1.02
11,RWHEGYRQTPR [CD44_Y412_K417R],0.461
12,HNLDYYKKTTN [FGFR3_Y648],0.696
13,TTKGAYSLSIR [YES1_Y194],0.369
14,KRRGPYEMSPS [PLPP7_Y172_T174M],0.323
15,KGEDFYCVTCP [FHL1_Y149_H154P],0.586
16,TRSFKCLLLSM [NF1_Y491_Y491C_YF],0.551
17,HYPDVYAWEQL [ALX3_Y181_R183W],0.913

row,Sequence,phosphorylation enrichment
1,EILLSYLRTGY [TGM1_Y365],0.544
2,QRDSSYFWEIE [RAF1_Y340_YF],0.776
3,WSQAMYPDLGP [STARD8_Y330_R327Q],0.476
4,AKKKMYSHKTK [AGXT_Y231_R233H],1.01
5,GRKTLYSFFSP [UNG_Y8_Q4R],0.709
6,GSERRYSREGG [PTPRN2_Y139],0.5
7,KACKHYLTTRT [ZBTB5_Y118],0.46
8,GQLIFYAPPEW [CNTN6_Y315],0.938
9,IDFARYWHGDD [MMP11_Y162],0.676
10,VSFDEYRFRSF [CFTR_Y515_V520F_YF],0.612
11,QLATEYVFSDF [PANX1_Y10],0.615
12,YRRITYHNWRH [PDE6B_Y556],0.376
13,VTRANYFIRDE [GNAS_Y339_K338N],0.541
14,FIGRIYLFLTK [GARS1_Y414_YF],0.83
15,DKTGEYPVPLT [ACADM_Y73_I78T],0.502
16,KNKKDYYDMYE [SLC26A3_Y526],1.13

# Test system: c-Abl (mouse)
# Assay: as above
row,Sequence,phosphorylation enrichment
1,LKGQVYILGGE [ASS1_Y359_R363G],1.32
2,IKIMGYFIRTI [IDS_Y490_S491F],0.813
3,EMFNPYFGLFE [NEDD4L_Y679_YF],1.14
4,ATPSRYMTFLH [DYNC2H1_Y2872],0.527
5,YGTAQYCCRMG [LRRK2_Y2023_I2020T],3.23
6,QKTGDYYDLYG [PTPN11_Y62_N58K],1.21
7,KRNSLYSFSDH [CCDC82_Y331_Q327R],0.569
8,PSQRRYVYYYS [PTEN_Y174],1.21
9,RNLLIYTEFGK [HGD_Y166_G161R],2.48
10,SVGGCYEQLFV [MC4R_Y41_D37V],1.22
11,RWHEGYRQTPR [CD44_Y412_K417R],0.65
12,HNLDYYKKTTN [FGFR3_Y648],0.817
13,TTKGAYSLSIR [YES1_Y194],0.669
14,KRRGPYEMSPS [PLPP7_Y172_T174M],0.508
15,KGEDFYCVTCP [FHL1_Y149_H154P],0.646
16,TRSFKCLLLSM [NF1_Y491_Y491C_YF],0.713
17,HYPDVYAWEQL [ALX3_Y181_R183W],0.404

row,Sequence,phosphorylation enrichment
1,EILLSYLRTGY [TGM1_Y365],0.922
2,QRDSSYFWEIE [RAF1_Y340_YF],0.989
3,WSQAMYPDLGP [STARD8_Y330_R327Q],0.648
4,AKKKMYSHKTK [AGXT_Y231_R233H],1.62
5,GRKTLYSFFSP [UNG_Y8_Q4R],0.56
6,GSERRYSREGG [PTPRN2_Y139],0.46
7,KACKHYLTTRT [ZBTB5_Y118],0.859
8,GQLIFYAPPEW [CNTN6_Y315],2.95
9,IDFARYWHGDD [MMP11_Y162],0.592
10,VSFDEYRFRSF [CFTR_Y515_V520F_YF],0.982
11,QLATEYVFSDF [PANX1_Y10],0.907
12,YRRITYHNWRH [PDE6B_Y556],0.53
13,VTRANYFIRDE [GNAS_Y339_K338N],0.712
14,FIGRIYLFLTK [GARS1_Y414_YF],1.31
15,DKTGEYPVPLT [ACADM_Y73_I78T],0.57
16,KNKKDYYDMYE [SLC26A3_Y526],0.579

# Test system: c-Src
# Assay: as above
row,Sequence,phosphorylation enrichment
1,LKGQVYILGGE [ASS1_Y359_R363G],1.13
2,IKIMGYFIRTI [IDS_Y490_S491F],0.424
3,EMFNPYFGLFE [NEDD4L_Y679_YF],7.31
4,ATPSRYMTFLH [DYNC2H1_Y2872],0.482
5,YGTAQYCCRMG [LRRK2_Y2023_I2020T],0.757
6,QKTGDYYDLYG [PTPN11_Y62_N58K],3.77
7,KRNSLYSFSDH [CCDC82_Y331_Q327R],1.33
8,PSQRRYVYYYS [PTEN_Y174],0.872
9,RNLLIYTEFGK [HGD_Y166_G161R],4.93
10,SVGGCYEQLFV [MC4R_Y41_D37V],1.24
11,RWHEGYRQTPR [CD44_Y412_K417R],0.35
12,HNLDYYKKTTN [FGFR3_Y648],0.373
13,TTKGAYSLSIR [YES1_Y194],0.567
14,KRRGPYEMSPS [PLPP7_Y172_T174M],0.45
15,KGEDFYCVTCP [FHL1_Y149_H154P],3.64
16,TRSFKCLLLSM [NF1_Y491_Y491C_YF],0.4
17,HYPDVYAWEQL [ALX3_Y181_R183W],5.25

row,Sequence,phosphorylation enrichment
1,EILLSYLRTGY [TGM1_Y365],0.462
2,QRDSSYFWEIE [RAF1_Y340_YF],0.712
3,WSQAMYPDLGP [STARD8_Y330_R327Q],0.47
4,AKKKMYSHKTK [AGXT_Y231_R233H],0.727
5,GRKTLYSFFSP [UNG_Y8_Q4R],1.9
6,GSERRYSREGG [PTPRN2_Y139],0.463
7,KACKHYLTTRT [ZBTB5_Y118],0.659
8,GQLIFYAPPEW [CNTN6_Y315],0.822
9,IDFARYWHGDD [MMP11_Y162],0.387
10,VSFDEYRFRSF [CFTR_Y515_V520F_YF],0.561
11,QLATEYVFSDF [PANX1_Y10],0.837
12,YRRITYHNWRH [PDE6B_Y556],0.606
13,VTRANYFIRDE [GNAS_Y339_K338N],0.494
14,FIGRIYLFLTK [GARS1_Y414_YF],0.632
15,DKTGEYPVPLT [ACADM_Y73_I78T],0.448
16,KNKKDYYDMYE [SLC26A3_Y526],0.579
